Columns and labels:
[1] = biological target: T1, PTPN4-PDZ (residues G499-N604) (human), P29074; assay: NMR titration (rounded value in the text)
T1 chain: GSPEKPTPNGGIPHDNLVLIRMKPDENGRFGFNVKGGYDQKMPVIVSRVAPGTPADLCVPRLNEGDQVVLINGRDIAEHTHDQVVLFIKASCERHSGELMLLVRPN

[2] = biological target: T1, PTPN4-PDZ (residues G499-N604) (human), …; assay: NMR titration, 15N-labeled PTPN4-PDZ with unlabeled peptide

## SWESHKSGGETRL (modifications not checked) [Cyto13-att]
[1]
  Kd: 160 µM
[2]
  Kd: 157 µM

Reference: patent publication US20140302123A1
